Laboratory results from PMC13463089, “PA200 modulates immunoproteasome structure and activity” (Nature Communications, 2026).

Tests used:
[1] = molecular target: human i20S purified from HEK293-EBNA cells (human) (UniProt P60900); assay: mass photometry; 20S at 120 nM titrated with PA200 (PA200:20S molar ratios from 0 to 15), Tris 50 mM pH 7.6, 2 h on ice, diluted six times to 20 nM 20S immediately before measurement; apparent KD from counts of free, singly- and doubly-capped 20S
[2] = molecular target: human standard 20S proteasome (s20S) purchased from Enzo (human) (UniProt P60900); assay: as above

apparent KD of the first PA200 binding event [1]: 40 nM
apparent KD of the second PA200 binding event [1]: 150 nM
apparent KD of the first PA200 binding event [2]: 40 nM
apparent KD of the second PA200 binding event [2]: 150 nM
Substance: recombinantly expressed and purified human PA200 (from UniProt Q14997 1-1843) (natural protein)
